Columns and labels:
His-tagged human B7-H3 [1] = target: T1, His-tagged human B7-H3 (human, UniProt Q5ZPR3-2 29-245, limits assumed); assay: ELISA, coated His-tagged antigen, scFv-Fc 1 ug/ml
T1 construct: Bought His-tagged protein coated on the ELISA plate; also called hu B7-H3; CD276
T1 sequence (looked up): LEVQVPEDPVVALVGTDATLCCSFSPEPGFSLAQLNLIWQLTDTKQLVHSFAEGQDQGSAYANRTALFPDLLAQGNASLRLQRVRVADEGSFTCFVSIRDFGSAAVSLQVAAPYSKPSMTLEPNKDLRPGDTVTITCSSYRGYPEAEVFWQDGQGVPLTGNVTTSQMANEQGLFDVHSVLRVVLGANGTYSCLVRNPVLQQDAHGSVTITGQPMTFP
Description: (§1) The variable regions of heavy and light chains were cloned and assembled into a single chain Fv-Fc (ScFv-Fc) mammalian expression vector. Sanger sequencing was performed by GeneWiz and sequences were evaluated using DNASTAR Lasergene 15. Unique scFv-Fes were transiently expressed in Expi293 cells (Life Technologies, #A14527) grown in Expi293 Expression Medium (Life Technologies, #A1435101) after transfection using the ExpiFectamine transfection reagent and supplements (Life Technologies, #A14524). Cells were incubated for 3-5 days with shaking at 37° C. in a 5% CO2 humidified incubator.

His-tagged mouse B7-H3 = target: T2, His-tagged mouse B7-H3 (mouse, UniProt Q8VE98 29-244, limits assumed); assay: ELISA, coated His-tagged antigen, scFv-Fc 1 ug/ml
T2 construct: Bought His-tagged protein coated on the ELISA plate; also called mu B7-H3; murine B7-H3
T2 sequence (looked up): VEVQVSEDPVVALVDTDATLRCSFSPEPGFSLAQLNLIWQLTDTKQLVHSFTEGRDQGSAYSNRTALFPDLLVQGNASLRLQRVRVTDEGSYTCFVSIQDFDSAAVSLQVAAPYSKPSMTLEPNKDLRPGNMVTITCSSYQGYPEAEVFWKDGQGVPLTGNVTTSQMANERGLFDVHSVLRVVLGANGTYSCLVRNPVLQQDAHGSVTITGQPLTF
Description: as §1

[2] = target: T3, His-tagged cynomolgus monkey B7-H3 (cynomolgus monkey); assay: ELISA, coated His-tagged antigen, scFv-Fc 1 ug/ml
T3 chain: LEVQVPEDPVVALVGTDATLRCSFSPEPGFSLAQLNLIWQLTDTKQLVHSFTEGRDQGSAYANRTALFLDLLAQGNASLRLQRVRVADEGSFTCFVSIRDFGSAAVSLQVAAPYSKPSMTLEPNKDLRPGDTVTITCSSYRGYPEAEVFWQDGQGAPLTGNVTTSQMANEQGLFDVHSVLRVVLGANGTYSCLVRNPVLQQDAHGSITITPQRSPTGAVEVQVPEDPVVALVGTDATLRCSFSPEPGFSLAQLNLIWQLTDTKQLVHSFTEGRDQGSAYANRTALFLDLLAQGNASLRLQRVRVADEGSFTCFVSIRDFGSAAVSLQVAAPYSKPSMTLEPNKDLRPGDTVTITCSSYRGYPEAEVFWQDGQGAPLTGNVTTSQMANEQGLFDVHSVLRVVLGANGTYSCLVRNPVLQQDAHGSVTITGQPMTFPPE
Description: as §1

[3] = target: T4, B7-H3 on B7-H3-expressing CHO cells (Genescript) (UniProt Q5ZPR3 29-534, limits assumed); assay: flow cytometry, B7-H3-expressing CHO cells, 10 ug/ml
T4 construct: whole, on cells; also called CHO-K1/B7-H3; MFI B7-H3
T4 sequence (looked up): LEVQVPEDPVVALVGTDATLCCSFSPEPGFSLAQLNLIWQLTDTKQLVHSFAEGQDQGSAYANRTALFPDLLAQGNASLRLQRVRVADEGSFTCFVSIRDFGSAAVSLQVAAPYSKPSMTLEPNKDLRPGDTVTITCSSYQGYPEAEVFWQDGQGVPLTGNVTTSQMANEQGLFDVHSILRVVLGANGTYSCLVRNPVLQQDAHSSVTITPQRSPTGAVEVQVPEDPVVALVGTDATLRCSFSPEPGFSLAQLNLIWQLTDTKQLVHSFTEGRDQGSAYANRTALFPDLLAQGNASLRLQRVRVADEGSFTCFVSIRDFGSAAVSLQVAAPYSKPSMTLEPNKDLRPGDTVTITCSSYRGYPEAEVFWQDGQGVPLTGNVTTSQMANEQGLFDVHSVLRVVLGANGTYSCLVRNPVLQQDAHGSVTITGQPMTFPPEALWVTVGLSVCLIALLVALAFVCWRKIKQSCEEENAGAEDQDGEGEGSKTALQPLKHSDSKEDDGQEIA
Description: Binding of anti-B7-H3 antibodies to cell lines was assessed by flow cytometry. Briefly, approximately 1.5 e5 B7-H3-expressing CHO cells (Genescript) or parent CHO cells (ATCC) were resuspended in FACS buffer (PBS/1% BSA/0.01% NaN3) containing 10 μg/ml of anti-B7-H3 antibodies and incubated for 60 min on ice. […] Cells were then washed twice, resuspended in FACS buffer, and read on an Attune Flow Cytometer (Life Technologies). Data are expressed as Mean Fluorescent Intensities (MFI).

His-tagged human B7-H3 [4] = target: T1, His-tagged human B7-H3; assay: ELISA OD450 on hu B7-H3 over OD450 on mu B7-H3
Description: as §1

Binder	ELISA OD450 @ 1 ug/ml (His-tagged human B7-H3 [1])	ELISA OD450 @ 1 ug/ml (His-tagged mouse B7-H3)	ELISA OD450 @ 1 ug/ml [2]	MFI @ 10 ug/ml [3]	hu:mu ratio (His-tagged human B7-H3 [4])
40633p1.1.G11 (scFv, V domains shown, Tested as scFv-Fc (Expi293 supernatant)) VH: EVQLLESGGGLVQPGGSLRLSCAASGFTVSYYGMSWVRQAPGKGLEWVSVIKQDGSEEYYADSVKGRFTISRDNSKNTLYLQMNSPRAEDTAVYYCARHWNDYSNGMNVWGQGTTVTVSS VL: QSVLTQPPSASGTPGQRVTISCSGSTSNVGDRYVYWYQQLPGTAPKLLIYLDDQRPSGVPDRFSGSKSGTSASLAISGLQSEDEADYYCASWDASLNGWVFGGGTKLTVL	2.05 OD450	1.83 OD450	1.72 OD450	75900 MFI	1.12
40633p1.1.B3 (scFv, V domains shown, Tested as scFv-Fc (Expi293 supernatant)) VH: EVQLLESGGGLVQPGGSLRLSCAASGFTVSYYGMSWVRQAPGKGLEWVSAIKQDGSEKYYADSVKGRFTISRDNSKNTLYLQMNSLRAEDTAVYYCARHWNDYSNAMNVWGQGTTVTVSS VL: QSVLTQPPSASGTPGQRVTISCSGSTSNIGRESVYWYQQLPGTAPKLLIYTIDQRPSGVPDRFSGSKSGTSASLAISGLQSEDEADYYCGTWDDSLNAWVFGGGTKLTVL	2.04 OD450	1.83 OD450	1.89 OD450	74700 MFI	1.11
40633p1.2.C3 (scFv, V domains shown, Tested as scFv-Fc (Expi293 supernatant)) VH: EVQLLESGGGLVQPGGSLRLSCAASGFTVSYYGMSWVRQAPGKGLEWVSAIKQDGSEKYYADSVKGRFTISRDNSKNTLYLQMNSLRAEDTAVYYCARHWNDYSNAMNVWEQGTTVTVSS VL: QSVLTQPPSASGTPGQRVTISCSGSNSNVGGNYVSWYQQLPGTAPKLLIYRNSQRPSGVPDRFSGSKSGTSASLAISGLQSEDEAVYYCASWDASLNGWVFGGGTKLTVL	1.78 OD450	0.886 OD450	2.01 OD450	53100 MFI	2.01
40633p1.2.F3 (scFv, V domains shown, Tested as scFv-Fc (Expi293 supernatant)) VH: EVQLLESGGGLVQPGGSLRLSCAASGFTVSYYGMSWVRQAPGKGLEWVSVIKQDGSEEYYADSVKGRFTISRDNSKNTLYLQMNSLRAEDTAVYYCARHWNDYSNGMNVWGQGTTVTVSS VL: not shown	1.96 OD450	1.91 OD450	2.04 OD450	68800 MFI	1.03
40633p1.2.E1 (scFv, V domains shown, Tested as scFv-Fc (Expi293 supernatant)) VH: EVQLLESGRGLVQPGGSLRLSCAASGFTVSYYGMSWVRQAPGKGLEWVSVIKQDGSEEYYADSVKGRFTISRDNSKNTLYLQMNSLRAEDTAVYYCARHWNDYSNGMNVWGQGTTVTVSS VL: QSVLTQPPSASGTPGQRVTISCSGSTSNVGDRYVYWYQQLPGTAPKLLIYLDDQRPSGVPDRFSGSKSGTSASLAISGLQSEDEADYYCASWDASLNGWVFGGGTKLTVL	1.9 OD450	1.98 OD450	1.95 OD450	64700 MFI	0.961
40633p1.2.A8 (scFv, V domains shown, Tested as scFv-Fc (Expi293 supernatant)) VH: EVQLLESGGGLLQPGGSLRLSCAASGFSFSSYGMHWVRQAPGKGLEWVAAINSDGSRIYYADSVKGRFTISRDNSKNTLYLQMNSLRAEDTAVYYCTKYYYHYAMDVWGQGTTVTVSS VL: QSVLTQPPSASGTPGQRVTISCSGSRSDIGATTVNWYQQLPGTAPKLLIYQSHLRPSGVPDRFSGSKSGTSASLAISGLQSEDEADYYCASWDASLNTWVFGGGTKLTVL	2.17 OD450	1.95 OD450	2.16 OD450	62200 MFI	1.11
40633p1.1.B12 (scFv, V domains shown, Tested as scFv-Fc (Expi293 supernatant)) VH: EVQLLESGGGLLQPGGSLRLSCAASGFSFSSYGMHWVRQAPGKGLEWVAAINSDGSRIYYADSVKGRFTISRDNSKNTLYLQMNSLRAEDTAVYYCTKYYYHYAMDVWGQGTTVTVSS VL: QSVLTQPPSASGTPGQRVTISCSGSRSDIGATTVNWYQQLPGTAPKLLTYQSHLRPSGVPDRFSGSKSGTSASLAISGLQSEDEADYYCASWDASLNTWVFGGGTKLTVL	1.83 OD450	1.75 OD450	1.72 OD450	65400 MFI	1.04
40633p1.2.G9 (scFv, V domains shown, Tested as scFv-Fc (Expi293 supernatant)) VH: EVQLLESGGGLLQPGGSLRLSCAASGFSFSSYGMHWVRQAPGKGLEWVAAINSDGSRIYYADSVEGRFTISRDNSKNTLYLQMNSLRAEDTAVYYCTKYYYHYAMDVWGQGTTVTVSS VL: QSVLTQPPSASGTPGQRVTISCSGSRSDIGATTVNWYQQLPGTAPKLLIYQSHLRPSGVPDRFSGSKSGTSASLAISGLQSEDEADYYCASWDASLNTWVFGGGTKLTVL	2.08 OD450	1.85 OD450	2.41 OD450	67600 MFI	1.13
40633p1.1.E4 (scFv, V domains shown, Tested as scFv-Fc (Expi293 supernatant)) VH: EVQLLESGGGLVQPGGSLRLSCAASGFTFSSYWMSWVRQAPGKGLEWVSGISSSGSATYYADSVKGRFTISRDNSKNTLYLQMNSLRAEDTAVYYCARWNDYDIMDVWGQGTTVTVSS VL: not shown	1.95 OD450	1.51 OD450	1.86 OD450	80000 MFI	1.29
40633p1.1.C11 (scFv, V domains shown, Tested as scFv-Fc (Expi293 supernatant)) VH: EVQLLESGGGLVQPGGSLRLSCAASGFTFSSYWMSWVRQAPGKGLEWVAGINRNGGTTYYADSVKGRFTISRDNSKNTLYLQMNSLRAEDTAVYYCARWNDYDIMDVWGQGTTVTVSS VL: not shown	2.09 OD450	1.85 OD450	1.65 OD450	81100 MFI	1.13
40633p1.2.D7 (scFv, V domains shown, Tested as scFv-Fc (Expi293 supernatant)) VH: EVQLLESGGSLVQPGGSLRLSCAASGFTFSSYWMSWVRQAPGKGLEWVSGISSSGSATYYADSVKGRFTISRDNSKNTLYLQMNSLRAEDTAVYYCARWNDYDIMDVWGQGTTVTVSS VL: not shown	2.19 OD450	1.51 OD450	1.92 OD450	75100 MFI	1.45

Source: patent publication US20260008852A1 (CRYSTAL BIOSCIENCE, published 2026)
